Source: US7563882B2, “Polynucleotides encoding antibodies that bind to the C35 polypeptide” (University of Rochester, priority 2002, dated 2009)

Columns and labels:
[1] = biological target: HLA-B*0702 (Homo sapiens, UniProt P01889); experiment: Fluorescence polarization competition for MHC-peptide binding; settings: soluble HLA-B*0702, fluorescent labeled binding standard
Method: A similar analysis was conducted with C35 peptides that bind to soluble HLA-B*0702 employing a fluorescent labeled HLA-B*0702 binding standard and suitable relevant and irrelevant peptides to calibrate inhibition of binding by test peptides. Note that these inhibition values are sensitive to the choice and concentration of both MHC molecule and specific fluorescent peptides under the same assay conditions.

[2] = tested on: T cell line 4; assay type: cell-based, human
[3] = tested on: EBV-B target cells; experiment: C35 peptide mediated T cell lysis of peptide pulsed EBV-B cells (Table 10); assay type: cell-based, human
[4] = biological target: T1, hC35 protein (Homo sapiens, UniProt Q9BRT3); experiment: Western Blot immunodetection with hybridoma supernatants; assay type: binding; settings: 100 ng purified recombinant C35 protein or control β-galactosidase per lane
T1 construct: made in house; host or cells: E. coli
T1 sequence (Q9BRT3 1-115): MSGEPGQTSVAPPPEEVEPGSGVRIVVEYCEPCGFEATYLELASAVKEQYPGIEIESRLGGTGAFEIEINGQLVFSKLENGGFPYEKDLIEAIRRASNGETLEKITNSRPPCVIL
Method: Western Blot Immunodetection was performed with supernatants from selected hybridoma clones. […] In these experiments, 100 ng of purified recombinant C35 protein or control β-galactosidase protein was loaded in each lane of an 18% SDS polyacrylamide gel. Gels were transferred to PVDF membrane, as is well known to those practiced in the art. Membranes were blocked with Tris buffered saline (TBS), including Tween-20 and 5% non-fat dry milk. Each blot was incubated with various dilutions of hybridoma supernatants as the primary antibody, followed by incubation with a secondary antibody, goat anti-mouse IgG conjugated to HRP, and detected with the chemiluminescent substrate, ECL. Similar results were obtained with 11B10 (not shown).

[5] = biological target: T2, C35 (Homo sapiens, UniProt Q9BRT3); experiment: Immunohistochemical staining of primary breast tumor sections; assay type: binding; settings: paraffin sections, affinity purified antibody
T2 construct: from tissue; host or cells: paraffin sections of primary human breast tumor (invasive breast adenocarcinoma, patient 01A6) and normal breast tissue
T2 sequence (Q9BRT3 1-115): T1 sequence (Q9BRT3 1-115)
Excerpt: Antibody was affinity purified from 1F2 hybridoma supernatant. Paraffin-embedded slides were deparaffinized with xylene and rehydrated through graded alcohols. Target retrieval was achieved through steam and high pH treatment. […] Slides were counterstained with hematoxylin, dehydrated with EtOH/xylene, and coverslipped.

ITNSRPPCV [105-113]
% Inhibition [1]: 45.2%

KLENGGFPY [peptide 77-85]
GM-CSF stimulation [2]: greatest stimulation
% Lysis EBV-B cell Target ([3]; T cell clone #46, donor (A2, A3; B18, B44), target pulsed with peptide): 97.1%
lytic activity on EBV-B cells pulsed with peptide ([3]; T cell clones from donor with A2, A3, B18, B44 HLA haplotypes): 97.1%

NSRPPCVIL [N107 to L115]
% Inhibition [1]: 68.2%

B1: 1F2: C35-specific monoclonal antibody; Kappa and IgG1 V-genes SEQ ID NOs:148 and 149 (antibody, V domains shown)
VH: MKVLSLLYLLTAIPGILSDVQLQESGPGLVKPSQSLSLTCSVTGYSITSGYFWNWIRQFPGNKLEWMGYISYDGSNNSNPSLKNRISFTRDTSKNQFFLKFNSVTTDDSAAYYCTRGTTGFAYWGQGTLVTVSA
VL: MDFQVQIFSFLLISASVRMSRGQIVLTQSPAIMSASPGEKVTISCSASSSVSYMNWYQQKPGSSPKPWIYHTSNLASGVPARFSGSGSGTSYSLTISSMEAEDAATYYCQQYHSYPPTFGGGTKLEIK
modifications: cDNA of 1E11/1F2 V-genes (IgG1); cDNA of 1E11/1F2 V-genes (Kappa)
reactivity with hC35 protein in Western Blot [4]: reacted specifically
immunohistochemical staining of human breast tumors [5]: can detect high levels of endogenous C35 expression
immunohistochemical staining of normal breast tissue [5]: little or no staining

B2: 3E10: C35-specific monoclonal antibody; Kappa and IgG1 V-genes SEQ ID NOs:150 and 151 (antibody, V domains shown)
VH: MMVLSLLYLLTALPGILSEVQLQESGPSLVKPSQTLSLTCSVTGDSITSGYWNWIRKFPGNKLEYVGYISYSGGTYYNPSLKSRISITRDTSKNHYYLQLNSVTTEDTATYYCARGAYYGGAFFPYFDVWGAGTTVTVSS
VL: MRFQVQVLGLLLLWISGAHCDVQITQSPSFLAASPGETITINCRASKYISKHLVWYQEKPGETKKLLIYSGSTLQSGLPSRFSGSGSGTDFTLTISSLEPEDFAMYYCQQHNEYPLTFGAGTKLELK
modifications: cDNA of 3E10 V-genes (IgG1); cDNA of 3E10 V-genes (Kappa)
reactivity with hC35 protein in Western Blot [4]: reacted specifically
